Results: patent publication US20120046217A1 (SUNGKYUNKWAN UNIVERSITY FOUNDATION FOR CORPORATE …, published 2012)

T1: Flag-TNFR1 (UniProt P19438 30-455, limits assumed)
T1 construct: whole, on cells; The receptor sat on the membrane of transfected HEK293 cells; not shown: Flag tag
T1 sequence (looked up): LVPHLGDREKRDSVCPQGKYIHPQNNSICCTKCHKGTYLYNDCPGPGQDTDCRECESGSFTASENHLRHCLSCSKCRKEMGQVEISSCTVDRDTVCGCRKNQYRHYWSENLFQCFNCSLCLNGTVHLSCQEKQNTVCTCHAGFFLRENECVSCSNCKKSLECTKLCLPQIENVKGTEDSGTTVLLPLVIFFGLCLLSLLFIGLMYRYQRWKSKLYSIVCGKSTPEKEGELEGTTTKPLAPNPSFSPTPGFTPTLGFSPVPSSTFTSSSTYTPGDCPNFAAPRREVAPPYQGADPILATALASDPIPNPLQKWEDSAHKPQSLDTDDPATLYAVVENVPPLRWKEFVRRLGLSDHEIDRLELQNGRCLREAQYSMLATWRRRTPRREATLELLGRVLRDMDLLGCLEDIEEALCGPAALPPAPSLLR


Target: T1, Flag-TNFR1
Assay: co-immunoprecipitation of truncated mutants co-transfected with TNFR1
Method: The cells were washed with RIPA buffer, and protein-A/G-agarose beads (Santa Cruz) were added in an amount of 20 μL/tube to perform immunoprecipitation. According to the molecular weights of the truncated mutants, […] 15% SDS-PAGE gel electrophoresis was carried out, followed by Western blotting with an Myc antibody (FIG. 9).

| binding result | Binder |
| --- | --- |
| no binding | truncated mutant consisting of an IGFBP5 N-terminal domain (other, not shown: Myc tag from vector pSecTaq2/Hygro A) LGSFVHCEPCDEKALSMCPPSPLGCELVKEPGCGCCMTCALAEGQSCGVYTERCAQGLRCLPRQDEEKPLHALLHGRGVC |
| no binding | truncated mutant consisting of an IGFBP5 C-terminal domain (other, not shown: Myc tag from vector pSecTaq2/Hygro A) QGPCRRHMEASLQELKASPRMVPRAVYLPNCDRKGFYKRKQCKPSRGRKRGICWCVDKYGMKLPGMEYVDGDFQCHTFDSSNVE |
